IntAct's records for PubMed 17498700

B1: Type-1 angiotensin II receptor (Homo sapiens), P30556 (parent)
chain: MILNSSTEDGIKRIQDDCPKAGRHNYIFVMIPTLYSIIFVVGIFGNSLVVIVIYFYMKLKTVASVFLLNLALADLCFLLTLPLWAVYTAMEYRWPFGNYLCKIASASVSFNLYASVFLLTCLSIDRYLAIVHPMKSRLRRTMLVAKVTCIIIWLLAGLASLPAIIHRNVFFIENTNITVCAFHYESQNSTLPIGLGLTKNILGFLFPFLIILTSYTLIWKALKKAYEIQKNKPRNDDIFKIIMAIVLFFFFSWIPHQIFTFLDVLIQLGIIRDCRIADIVDTAMPITICIAYFNNCLNPLFYGFLGKKFKRYFLQLLKYIPPKAKSHSNLSTKMSTLSYRPSDNVSSSTKKPAPCFEVE

Variants of: B1
Conditions: with arrb1_human ARRB1, P49407
Chain of arrb1_human ARRB1, P49407 (P49407 whole entry): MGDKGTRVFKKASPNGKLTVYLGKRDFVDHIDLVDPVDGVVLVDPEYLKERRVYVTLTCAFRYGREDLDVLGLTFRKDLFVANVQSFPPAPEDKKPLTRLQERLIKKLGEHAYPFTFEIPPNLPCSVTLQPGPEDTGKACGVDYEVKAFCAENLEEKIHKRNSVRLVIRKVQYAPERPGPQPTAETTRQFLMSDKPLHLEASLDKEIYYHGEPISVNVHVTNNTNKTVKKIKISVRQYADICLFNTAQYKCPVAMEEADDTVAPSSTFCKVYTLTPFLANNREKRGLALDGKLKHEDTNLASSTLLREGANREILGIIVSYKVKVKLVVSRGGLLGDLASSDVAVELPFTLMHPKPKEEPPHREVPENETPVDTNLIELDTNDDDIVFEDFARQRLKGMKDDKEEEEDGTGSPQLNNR

| Variant | effect of a mutation on the interaction |
| --- | --- |
| N111G | decreasing interaction |

Variants of: B1
Conditions: with gnaq_human GNAQ

| Variant | effect of a mutation on the interaction |
| --- | --- |
| N111G | increasing interaction |
